In patent US5731185:

Test system: HphI restriction endonuclease (Haemophilus parahaemolyticus)
Test: cleavage_in_vitro
Settings: crude extract cleaves lambda DNA; pAGR3-Rg1 clones in ER2252 about 750 units/g

lambda DNA
activity (units/g cells): 5000
